Biological target: biotinylated EpoR (Abbott CHO cell derived ref.# RB69084:4) (UniProt P19235)
Assay: immunofluorescence microscopy on EpoR-coated sheep red blood cells

biotinylated EpoR (Abbott CHO cell derived ref.# RB69084:4), sequence (P19235 25-250 limits assumed): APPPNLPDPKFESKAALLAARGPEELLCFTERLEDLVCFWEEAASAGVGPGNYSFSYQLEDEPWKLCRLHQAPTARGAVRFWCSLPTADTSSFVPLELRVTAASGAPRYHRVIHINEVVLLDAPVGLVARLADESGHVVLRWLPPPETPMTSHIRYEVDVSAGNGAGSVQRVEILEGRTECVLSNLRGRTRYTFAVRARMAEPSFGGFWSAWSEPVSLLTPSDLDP

immunofluorescence score (arbitrary scale of 0-4) (score out of 4): 4
Substance: murine antiEpoR antibody (R&D Systems Cat.# MAB307)

Source: patent publication US20040071694A1
